“And” between values parts separate entries of the source, which are not always exact repeats. Identical values can stand only once.

Assay [1] deals with T1, mFc-hNKG2D (human, UniProt P26718 73-216).
T1 construct: extracellular domain; Made in house (Dragonfly Tx); the order of tag and ECD follows the name mFc-hNKG2D; also called mFc-tagged human NKG2D; not shown: mouse Fc tag
T1 sequence (looked up): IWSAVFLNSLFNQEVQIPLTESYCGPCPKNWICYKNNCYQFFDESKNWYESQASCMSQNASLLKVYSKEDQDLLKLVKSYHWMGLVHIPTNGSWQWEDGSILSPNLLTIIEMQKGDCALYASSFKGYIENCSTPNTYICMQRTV
In words: SPR Biacore 8K 37 C; mFc-hNKG2D captured on anti-mFc chip, TriNKET as analyte; steady state fit; after 4 wks 40 C in phosphate/citrate/NaCl pH 7.8, n=2. For orientation: In SPR one partner is held on a chip, and binding of the other changes the refractive index at the surface.

For a further assay, the target named is T2, mFc-cNKG2D (cynomolgus monkey, UniProt P61252 73-216).
T2 construct: extracellular domain; Made in house (Dragonfly Tx); also called recombinant cyno NKG2D extracellular domain (ECD); mFc-tagged cyno NKG2D dimer; not shown: mouse Fc tag
T2 sequence (looked up): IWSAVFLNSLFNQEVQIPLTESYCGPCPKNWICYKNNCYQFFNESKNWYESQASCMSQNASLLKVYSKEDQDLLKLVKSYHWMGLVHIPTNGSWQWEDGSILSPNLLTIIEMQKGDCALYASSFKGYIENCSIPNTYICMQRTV
In words: SPR Biacore 37 C; mFc-tagged cyno NKG2D dimer, TriNKET as analyte; kinetics fit.

Assay [2] has as its target T1, mFc-hNKG2D. In words: SPR Biacore 8K 37 C; mFc-hNKG2D captured on anti-mFc chip, TriNKET as analyte; 1:1 kinetic fit; un-oxidized control.
Description: Association was monitored for 60 seconds and dissociation was monitored for 60 seconds. Surfaces were regenerated between cycles with three pulses of 10 mM glycine-HCl, pH 1.7 injected for 20 seconds at 100 μL/min. HBS-EP+ (1×) buffer was used throughout the experiment. Data were analyzed using Biacore 8K Insight evaluation software (GE Healthcare).
The next assay addresses T3, Human CLEC12A-His (human, UniProt Q5QGZ9 65-265).
T3 construct: Recombinant soluble protein made in house (Dragonfly Tx); The hCLEC12A spot of the HuProt array is written under this molecule as well; also called hCLEC12A-His; hCLEC12A; not shown: His tag
T3 sequence: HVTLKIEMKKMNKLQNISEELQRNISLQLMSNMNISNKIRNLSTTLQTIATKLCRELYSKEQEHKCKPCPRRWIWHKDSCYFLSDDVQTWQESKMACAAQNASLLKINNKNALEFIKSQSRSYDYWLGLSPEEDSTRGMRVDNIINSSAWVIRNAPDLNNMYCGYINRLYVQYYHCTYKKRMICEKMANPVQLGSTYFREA
Description: SPR Biacore 8K 37 C; TriNKET captured on anti-hFc chip, hCLEC12A-His as analyte; 1:1 fit; control sample, n=2.

Assay [3] addresses T4, mFc-hNKG2D (human, UniProt P26718 73-216).
T4 construct: extracellular domain; Recombinant mFc-tagged NKG2D dimer, made in house; also called human NKG2D; not shown: mouse Fc tag
T4 sequence (looked up): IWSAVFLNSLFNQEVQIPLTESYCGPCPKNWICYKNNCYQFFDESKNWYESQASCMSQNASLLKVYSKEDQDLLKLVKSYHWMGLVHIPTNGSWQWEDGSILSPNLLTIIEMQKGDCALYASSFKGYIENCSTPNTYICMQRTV
Description: SPR, 37 C, mFc-hNKG2D captured, kinetic fit; average.

Assay [4] concerns the target T5, human CLEC12A expressed on cells (human, UniProt Q5QGZ9 1-265).
T5 construct: Transduced isogenic cells or endogenous expression on AML cells; also called RMA-hCLEC12A; Ba/F3-hCLEC12A
T5 sequence: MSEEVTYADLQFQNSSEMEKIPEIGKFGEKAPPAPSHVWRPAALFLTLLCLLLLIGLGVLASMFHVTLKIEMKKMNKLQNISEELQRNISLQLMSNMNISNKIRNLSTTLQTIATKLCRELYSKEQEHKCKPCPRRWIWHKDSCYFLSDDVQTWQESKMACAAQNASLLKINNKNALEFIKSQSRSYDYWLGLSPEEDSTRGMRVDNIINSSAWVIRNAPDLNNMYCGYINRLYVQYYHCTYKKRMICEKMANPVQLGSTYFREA
In words: flow cytometry, HL60. Background: In flow cytometry, cells or beads pass a laser one at a time.

Assay [5] deals with T6, recombinant human CLEC12A-His (human, UniProt Q5QGZ9 65-265).
T6 construct: also called hCLEC12A-His; hCLEC12A
T6 sequence: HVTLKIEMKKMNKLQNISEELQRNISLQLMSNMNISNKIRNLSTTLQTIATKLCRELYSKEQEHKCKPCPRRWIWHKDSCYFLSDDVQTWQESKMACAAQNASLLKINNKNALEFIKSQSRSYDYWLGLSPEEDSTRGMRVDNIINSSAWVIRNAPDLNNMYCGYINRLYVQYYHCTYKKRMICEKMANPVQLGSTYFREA
Description: SPR 37C.

B1: F3'-1602 TriNKET (bispecific antibody, human IgG1, kappa)
chain: QLQLQESGPGLVKPSETLSLTCTVSGFSLTNYGLHWIRQPPGKCLEWIGVIWSGGKTDYNPSLKSRVTISKDTSKNQFSLKLSSVQAADTAVYYCAKYDYDDSLDYWGQGTLVTVSSGGGGSGGGGSGGGGSGGGGSDIQMTQSPSSLSASVGDRVTITCHASQNINFWLSWYQQKPGKAPKLLIYEASNLHTGVPSRFSGSGSGTRFTLTISSLQPEDIATYYCQQSHSYPLTFGCGTKLEIKGSDKTHTCPPCPAPELLGGPSVFLFPPKPKDTLMISRTPEVTCVVVDVSHEDPEVKFNWYVDGVEVHNAKTKPREEQYNSTYRVVSVLTVLHQDWLNGKEYKCKVSNKALPAPIEKTISKAKGQPREPRVYTLPPCRDELTKNQVSLTCLVKGFYPSDIAVEWESNGQPENNYKTTPPVLVSDGSFTLYSKLTVDKSRWQQGNVFSCSVMHEALHNHYTQKSLSLSPG
heavy: EVQLVESGGGLVKPGGSLRLSCAASGFTFSSYSMNWVRQAPGKGLEWVSSISSSSSYIYYADSVKGRFTISRDNAKNSLYLQMNSLRAEDTAVYYCARGAPIGAAAGWFDPWGQGTLVTVSSASTKGPSVFPLAPSSKSTSGGTAALGCLVKDYFPEPVTVSWNSGALTSGVHTFPAVLQSSGLYSLSSVVTVPSSSLGTQTYICNVNHKPSNTKVDKKVEPKSCDKTHTCPPCPAPELLGGPSVFLFPPKPKDTLMISRTPEVTCVVVDVSHEDPEVKFNWYVDGVEVHNAKTKPREEQYNSTYRVVSVLTVLHQDWLNGKEYKCKVSNKALPAPIEKTISKAKGQPREPQVCTLPPSRDELTENQVSLTCLVKGFYPSDIAVEWESNGQPENNYKTTPPVLDSDGSFFLYSWLTVDKSRWQQGNVFSCSVMHEALHNHYTQKSLSLSPG
light: DIQMTQSPSSVSASVGDRVTITCRASQGISSWLAWYQQKPGKAPKLLIYAASSLQSGVPSRFSGSGSGTDFTLTISSLQPEDFATYYCQQGVSFPRTFGGGTKVEIKRTVAAPSVFIFPPSDEQLKSGTASVVCLLNNFYPREAKVQWKVDNALQSGNSQESVTEQDSKDSTYSLSSTLTLSKADYEKHKVYACEVTHQGLSSPVTKSFNRGEC
notes: Trispecific F3' format: CLEC12A scFv-Fc paired with NKG2D Fab-Fc; Stressed and control samples of the stability studies are the same molecule; also called AB0237
One may read the Kd as a measure of binding affinity in units of concentration. The koff is a measure of how fast the partners let go of each other. One may read the kon as the second-order rate constant of association. Consider B1, for which the Kd in the assay with mFc-hNKG2D [1] was 872 nM; in the assay with mFc-cNKG2D it was 831 nM and 825 nM and 931 nM and 769 nM; with mFc-hNKG2D [2] it was 750 nM; with Human CLEC12A-His, 0.98 nM. Moreover, the koff in the assay with mFc-hNKG2D [2] was 0.107 s⁻¹; with Human CLEC12A-His, 0.000735 s⁻¹. In addition, the values for the on-rate constant (kon) with mFc-hNKG2D [2] and with Human CLEC12A-His were 143000 M⁻¹ s⁻¹ and 750000 M⁻¹ s⁻¹, respectively.

B2: AB0192 TriNKET (other)
chain: EVQLVESGGGVVQPGGSLRLSCAASGFTFNAFGMHWVRQAPGKCLEWVAFISSGSTSIYYANTVKGRFTISRDNSKNTLYLQMNSLRAEDTAVYYCARDGYPTGGAMDYWGQGTSVTVSSGGGGSGGGGSGGGGSGGGGSDIQMTQSPSSLSASVGDRVTITCKASQDIYNYLSWFQQKPGKAPKPLIYRANILVSGVPSRFSGSGSGQDYTFTISSLQPEDIATYYCLQFDAFPFTFGCGTKLEIKGSDKTHTCPPCPAPELLGGPSVFLFPPKPKDTLMISRTPEVTCVVVDVSHEDPEVKFNWYVDGVEVHNAKTKPREEQYNSTYRVVSVLTVLHQDWLNGKEYKCKVSNKALPAPIEKTISKAKGQPREPRVYTLPPCRDELTKNQVSLTCLVKGFYPSDIAVEWESNGQPENNYKTTPPVLVSDGSFTLYSKLTVDKSRWQQGNVFSCSVMHEALHNHYTQKSLSLSPG
heavy: EVQLVESGGGLVKPGGSLRLSCAASGFTFSSYSMNWVRQAPGKGLEWVSSISSSSSYIYYADSVKGRFTISRDNAKNSLYLQMNSLRAEDTAVYYCARGAPIGAAAGWFDPWGQGTLVTVSSASTKGPSVFPLAPSSKSTSGGTAALGCLVKDYFPEPVTVSWNSGALTSGVHTFPAVLQSSGLYSLSSVVTVPSSSLGTQTYICNVNHKPSNTKVDKKVEPKSCDKTHTCPPCPAPELLGGPSVFLFPPKPKDTLMISRTPEVTCVVVDVSHEDPEVKFNWYVDGVEVHNAKTKPREEQYNSTYRVVSVLTVLHQDWLNGKEYKCKVSNKALPAPIEKTISKAKGQPREPQVCTLPPSRDELTENQVSLTCLVKGFYPSDIAVEWESNGQPENNYKTTPPVLDSDGSFFLYSWLTVDKSRWQQGNVFSCSVMHEALHNHYTQKSLSLSPG
light: DIQMTQSPSSVSASVGDRVTITCRASQGISSWLAWYQQKPGKAPKLLIYAASSLQSGVPSRFSGSGSGTDFTLTISSLQPEDFATYYCQQGVSFPRTFGGGTKVEIKRTVAAPSVFIFPPSDEQLKSGTASVVCLLNNFYPREAKVQWKVDNALQSGNSQESVTEQDSKDSTYSLSSTLTLSKADYEKHKVYACEVTHQGLSSPVTKSFNRGEC
notes: the condition stands under assay; also called AB0192 Lot AB0192-005
As to B2, the Kd in the assay with mFc-hNKG2D [3] is 779 nM.

B3: F3'-1602 TriNKET (other)
chain: QLQLQESGPGLVKPSETLSLTCTVSGFSLTNYGLHWIRQPPGKCLEWIGVIWSGGKTDYNPSLKSRVTISKDTSKNQFSLKLSSVQAADTAVYYCAKYDYDDSLDYWGQGTLVTVSSGGGGSGGGGSGGGGSGGGGSDIQMTQSPSSLSASVGDRVTITCHASQNINFWLSWYQQKPGKAPKLLIYEASNLHTGVPSRFSGSGSGTRFTLTISSLQPEDIATYYCQQSHSYPLTFGCGTKLEIKGSDKTHTCPPCPAPELLGGPSVFLFPPKPKDTLMISRTPEVTCVVVDVSHEDPEVKFNWYVDGVEVHNAKTKPREEQYNSTYRVVSVLTVLHQDWLNGKEYKCKVSNKALPAPIEKTISKAKGQPREPRVYTLPPCRDELTKNQVSLTCLVKGFYPSDIAVEWESNGQPENNYKTTPPVLVSDGSFTLYSKLTVDKSRWQQGNVFSCSVMHEALHNHYTQKSLSLSPG
heavy: EVQLVESGGGLVKPGGSLRLSCAASGFTFSSYSMNWVRQAPGKGLEWVSSISSSSSYIYYADSVKGRFTISRDNAKNSLYLQMNSLRAEDTAVYYCARGAPIGAAAGWFDPWGQGTLVTVSSASTKGPSVFPLAPSSKSTSGGTAALGCLVKDYFPEPVTVSWNSGALTSGVHTFPAVLQSSGLYSLSSVVTVPSSSLGTQTYICNVNHKPSNTKVDKKVEPKSCDKTHTCPPCPAPELLGGPSVFLFPPKPKDTLMISRTPEVTCVVVDVSHEDPEVKFNWYVDGVEVHNAKTKPREEQYNSTYRVVSVLTVLHQDWLNGKEYKCKVSNKALPAPIEKTISKAKGQPREPQVCTLPPSRDELTENQVSLTCLVKGFYPSDIAVEWESNGQPENNYKTTPPVLDSDGSFFLYSWLTVDKSRWQQGNVFSCSVMHEALHNHYTQKSLSLSPG
light: DIQMTQSPSSVSASVGDRVTITCRASQGISSWLAWYQQKPGKAPKLLIYAASSLQSGVPSRFSGSGSGTDFTLTISSLQPEDFATYYCQQGVSFPRTFGGGTKVEIKRTVAAPSVFIFPPSDEQLKSGTASVVCLLNNFYPREAKVQWKVDNALQSGNSQESVTEQDSKDSTYSLSSTLTLSKADYEKHKVYACEVTHQGLSSPVTKSFNRGEC
notes: CLEC12A scFv-Fc, NKG2D A49MI Fab-Fc, human IgG1 Fc; also called AB0237
As a reminder, the EC50 is the midpoint of the concentration-response curve. Regarding B3, in assay [4], the EC50 turned out to be 1.6 nM and the “Max binding MFI” value is 924 MFI. In assay [5], the equilibrium dissociation constant (Kd) was 0.58 nM and 0.59 nM and 0.57 nM and 0.6 nM; the dissociation rate constant (koff) was 0.000494 s⁻¹ and 0.000489 s⁻¹ and 0.000499 s⁻¹; the kon is 854000 M⁻¹ s⁻¹ and 833000 M⁻¹ s⁻¹ and 863000 M⁻¹ s⁻¹ and 826000 M⁻¹ s⁻¹.

The values are drawn from patent US20220119534A1 (DRAGONFLY THERAPEUTICS, published 2022).
